Measurements: patent US20230203185A1 (ECO ANIMAL HEALTH, published 2023)

Experiments:
[1] = target: control human IgG (human); experiment: ELISA, periplasmic extract on control IgG
[2] = target: T1, native membrane bound porcine CD163 on primary porcine alveolar macrophages (porcine, UniProt Q2VL90 47-1115); experiment: flow cytometry, PAM CD163-WT, 4C
T1 construct: also called PAM CD163-WT; pPAM
T1 sequence: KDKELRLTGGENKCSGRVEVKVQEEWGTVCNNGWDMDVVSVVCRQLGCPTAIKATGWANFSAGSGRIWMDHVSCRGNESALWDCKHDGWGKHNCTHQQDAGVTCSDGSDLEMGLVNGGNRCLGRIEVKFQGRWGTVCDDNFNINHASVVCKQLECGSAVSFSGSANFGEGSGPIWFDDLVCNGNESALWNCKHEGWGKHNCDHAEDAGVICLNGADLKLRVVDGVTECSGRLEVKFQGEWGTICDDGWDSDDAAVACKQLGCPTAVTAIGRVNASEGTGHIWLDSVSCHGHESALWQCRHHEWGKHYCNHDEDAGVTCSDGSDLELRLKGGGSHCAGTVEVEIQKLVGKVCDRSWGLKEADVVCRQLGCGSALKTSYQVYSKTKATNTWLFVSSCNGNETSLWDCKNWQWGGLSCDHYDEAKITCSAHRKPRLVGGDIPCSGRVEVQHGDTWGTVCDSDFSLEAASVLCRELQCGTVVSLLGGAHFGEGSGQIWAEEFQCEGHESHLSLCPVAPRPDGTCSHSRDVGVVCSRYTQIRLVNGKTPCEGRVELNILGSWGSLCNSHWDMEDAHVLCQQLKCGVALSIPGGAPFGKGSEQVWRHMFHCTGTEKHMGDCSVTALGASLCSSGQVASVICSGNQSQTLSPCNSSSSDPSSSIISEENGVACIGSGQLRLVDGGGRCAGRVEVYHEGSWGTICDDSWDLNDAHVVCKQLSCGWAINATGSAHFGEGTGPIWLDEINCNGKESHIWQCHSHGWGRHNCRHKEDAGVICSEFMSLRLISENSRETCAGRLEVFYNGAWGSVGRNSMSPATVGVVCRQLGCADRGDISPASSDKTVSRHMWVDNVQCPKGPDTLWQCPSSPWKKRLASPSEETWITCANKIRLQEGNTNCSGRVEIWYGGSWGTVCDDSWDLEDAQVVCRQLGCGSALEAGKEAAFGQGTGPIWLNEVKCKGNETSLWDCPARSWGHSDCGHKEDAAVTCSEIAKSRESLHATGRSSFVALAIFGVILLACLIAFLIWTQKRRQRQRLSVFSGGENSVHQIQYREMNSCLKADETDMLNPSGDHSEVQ
Experimental: Periplasmic Extract (P.E) from the selected clones were incubated with anti-c-myc antibody (Roche; Cat. nr. 11667203001), specific to the c-myc tag present in the soluble VHH, for 30 minutes with agitation at room temperature (RT). The mix (P.E + anti-c-myc antibody) was added to the pPAM or pPAMΔ5 domain (cells with deletion of SRCR domain 5) and incubated for 60 min at 4° C. with gentle shaking.
Cells were washed 3x with 150 µl/well of FACS Buffer and incubated with 50 µl/well of the secondary antibody GAM-APC for 30 min at 4° C. and protected from the light, with shaking.

[3] = target: T1, native membrane bound porcine CD163 on …; experiment: flow cytometry, PAM CD163-WT, RT
pCD163-SRCR4-7-huFc = target: T2, pCD163-SRCR4-7-huFc (porcine, UniProt Q2VL90 372-818, limits assumed); experiment: ELISA, periplasmic extract on coated antigen
T2 construct: also called pCD163:SRCR4-7-Fc; pCD163-SRCR4-7-Fc; not shown: human Fc (huFc)

pCD163-SRCR1-9-huFc = target: T3, pCD163-SRCR1-9-huFc (porcine, UniProt Q2VL90 47-1028, limits assumed); experiment: ELISA, periplasmic extract on coated antigen
T3 construct: also called pCD163:SRCR1-9-Fc; pCD163SRCR1-9-Fc; not shown: human Fc (huFc)
T3 sequence: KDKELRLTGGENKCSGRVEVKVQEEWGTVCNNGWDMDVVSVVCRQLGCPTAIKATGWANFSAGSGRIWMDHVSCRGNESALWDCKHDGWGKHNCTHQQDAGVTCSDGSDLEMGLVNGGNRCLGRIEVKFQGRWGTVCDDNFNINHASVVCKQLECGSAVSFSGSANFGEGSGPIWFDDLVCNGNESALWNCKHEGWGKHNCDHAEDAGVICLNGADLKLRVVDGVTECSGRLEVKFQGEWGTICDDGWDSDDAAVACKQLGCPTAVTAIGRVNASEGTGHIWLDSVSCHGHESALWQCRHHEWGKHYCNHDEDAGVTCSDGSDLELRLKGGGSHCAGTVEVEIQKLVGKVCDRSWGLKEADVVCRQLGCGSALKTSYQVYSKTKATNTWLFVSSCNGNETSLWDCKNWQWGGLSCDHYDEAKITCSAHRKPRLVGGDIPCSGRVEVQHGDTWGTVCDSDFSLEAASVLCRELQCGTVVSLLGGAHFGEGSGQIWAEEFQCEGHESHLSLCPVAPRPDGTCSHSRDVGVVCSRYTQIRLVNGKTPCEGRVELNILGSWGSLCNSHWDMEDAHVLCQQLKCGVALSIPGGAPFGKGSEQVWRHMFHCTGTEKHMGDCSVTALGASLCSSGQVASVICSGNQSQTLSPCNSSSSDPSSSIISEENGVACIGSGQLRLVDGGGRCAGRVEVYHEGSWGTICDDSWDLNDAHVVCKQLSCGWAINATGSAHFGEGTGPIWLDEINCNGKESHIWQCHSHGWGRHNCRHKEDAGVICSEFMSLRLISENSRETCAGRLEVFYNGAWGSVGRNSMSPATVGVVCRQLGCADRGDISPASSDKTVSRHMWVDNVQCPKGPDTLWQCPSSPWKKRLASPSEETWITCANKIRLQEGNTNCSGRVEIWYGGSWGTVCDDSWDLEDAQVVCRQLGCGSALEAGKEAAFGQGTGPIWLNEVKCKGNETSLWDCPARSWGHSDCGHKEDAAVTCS

B1: VHH 001 (1B02) (VHH)
VHH: EVQLVESGGGLVQAGGSLSLSCAASGGTLAMYAMSWFRQAPGKDRKFVAAINTSGRYSRYADSVKGRFTISRDNAKNTATLQMNSLEPEDTAVYYCAATDKGNWALAMSYDYWGQGTQVTVSS
notes: Llama single domain antibody; also called 144(#1); VHCDR3 144(#1); not shown: tags: c-myc tag in periplasmic extract (ELISA, FACS); FLAG and His tags in purified VHH (SPR, infection assays)
O.D. 450 [1]: 0.059 O.D. 450 | % Binding [2]: 0.97% | MFI [2]: 742 MFI | % Binding [3]: 0.69% | MFI [3]: 722 MFI | O.D. 450 (pCD163-SRCR4-7-huFc): 0.416 O.D. 450 | O.D. 450 (pCD163-SRCR1-9-huFc): 0.109 O.D. 450

B2: VHH 011 (2B06) (VHH)
VHH: EVQLVESGGGLVQAGGSLRLSCAASGRTLSVYGTGWFRQAPGKEREFVAGISGTTGSTLYADSVKGRFTISRDNAKNTVYLQMNSLKSEDTALYYCAAGGRVYITTSSWAYWGQGTQVTVSS
notes: Llama single domain antibody; also called 57(#11); VHCDR3 57(#11); not shown: tags: c-myc tag in periplasmic extract (ELISA, FACS); FLAG and His tags in purified VHH (SPR, infection assays)
O.D. 450 [1]: 0.059 O.D. 450 | % Binding [2]: 74.1% | MFI [2]: 4270 MFI | % Binding [3]: 3.32% | MFI [3]: 983 MFI | O.D. 450 (pCD163-SRCR4-7-huFc): 0.288 O.D. 450 | O.D. 450 (pCD163-SRCR1-9-huFc): 0.106 O.D. 450

B3: VHH 015 (2G01) (VHH)
VHH: QVQLVESGGGLVQAGDTLRLSCTASGRTFSSYSMGWFRQAPGKEREFVAAITWNGYITNYADSVKGRFTISRDNTKNTVFLQMNSLKPEETAVYYCAATTFSTTSPISRTYNYWGPGTQVTVSS
notes: Llama single domain antibody; also called 150(#15); VHCDR3 150(#15); not shown: tags: c-myc tag in periplasmic extract (ELISA, FACS); FLAG and His tags in purified VHH (SPR, infection assays)
O.D. 450 [1]: 0.058 O.D. 450 | % Binding [2]: 81.5% | MFI [2]: 6220 MFI | % Binding [3]: 20.4% | MFI [3]: 1660 MFI | O.D. 450 (pCD163-SRCR4-7-huFc): 4.37 O.D. 450 | O.D. 450 (pCD163-SRCR1-9-huFc): 1.18 O.D. 450

B4: VHH 018 (3E01) (VHH)
VHH: QVQLQESGGGLVQVGGSLRLSCVASGRAPSRYVMGWFRQAPGQEREFVAGIAWSGRAPYADSVKGRSTISRDNAKNTVYLQMNSLKPEDTGVYYCAGGEGAIRWTTLDAYDYWGQGTQVTVSS
notes: Llama single domain antibody; also called 49(#18); VHCDR3 49(#18); not shown: tags: c-myc tag in periplasmic extract (ELISA, FACS); FLAG and His tags in purified VHH (SPR, infection assays)
O.D. 450 [1]: 0.057 O.D. 450 | % Binding [2]: 80.1% | MFI [2]: 5210 MFI | % Binding [3]: 1.74% | MFI [3]: 903 MFI | O.D. 450 (pCD163-SRCR4-7-huFc): 0.938 O.D. 450 | O.D. 450 (pCD163-SRCR1-9-huFc): 1.03 O.D. 450

B5: VHH 019 (3E11) (VHH)
VHH: QVQLQESGGGLVQVGSSLRLSCVTSGRTPSRYVMGWFRQAPGQEREFVAAISWSGRAPYADSVKGRFTISRDNAKNTVYLQMNSLKPEDTGVYYCAGGEGAIKWTTLDAYDYWGQGTQVTVSS
notes: Llama single domain antibody; also called 47(#19); VHCDR3 47(#19); not shown: tags: c-myc tag in periplasmic extract (ELISA, FACS); FLAG and His tags in purified VHH (SPR, infection assays)
O.D. 450 [1]: 0.054 O.D. 450 | % Binding [2]: 93.8% | MFI [2]: 12500 MFI | % Binding [3]: 59.5% | MFI [3]: 3940 MFI | O.D. 450 (pCD163-SRCR4-7-huFc): 2.43 O.D. 450 | O.D. 450 (pCD163-SRCR1-9-huFc): 2.48 O.D. 450

B6: VHH 020 (3H11) (VHH)
VHH: QVQLQESGGGLVQVGGSLRLSCVASGRTPSRYVMGWFRQAPGQEREFVAGIAWSGRAPYADSVKGRFVISRDSAKNTVYLQMNSLKSEDTGVYYCAGGEGAILWTTPGAYNYWGQGTQVTVSS
notes: Llama single domain antibody; also called 48(#20); VHCDR3 48(#20); not shown: tags: c-myc tag in periplasmic extract (ELISA, FACS); FLAG and His tags in purified VHH (SPR, infection assays)
O.D. 450 [1]: 0.056 O.D. 450 | % Binding [2]: 95.5% | MFI [2]: 14000 MFI | % Binding [3]: 81.5% | MFI [3]: 9120 MFI | O.D. 450 (pCD163-SRCR4-7-huFc): 3.36 O.D. 450 | O.D. 450 (pCD163-SRCR1-9-huFc): 2.93 O.D. 450
